Marks after values point to notes of the source that are not given here.
Key:
[1] = tested on: cancer cells that express low levels of MUC1*; assay: xCELLigence real-time killing assay, summary over low expressers; assay type: cell-based; conditions: FIG. 54 and FIG. 56, DAR 8.2
[2] = tested on: NCI-H1975 lung cancer cells; assay: xCELLigence real-time killing assay (impedance); assay type: cell-based, human; conditions: readout 0 to 120 hours, DAR 8.2 (FIG. 56)
Protocol: FIG. 51A-51I show traces from the real-time killing assays performed on an xCELLigence instrument. In this assay, impedance is measured in real-time. When the adherent cancer cells are killed and come off of the electrode surface, impedance (insulation) decreases. NCI-H1975 lung cancer cells were plated onto multi-electrode-well plates at 5,000 cells per well and allowed to adhere and grow for 24 hours before the addition of ADCs. Either MNC2-MMAE, DAR 4.1, MN20A10-MMAE, DAR 5.8, MNC2-MMAF, DAR 3.7, MN20A10-MMAF, DAR 3.8, MNC2-Deruxtecan, DAR 7.2, or MN20A10-Deruxtecan, DAR 4.6, was then added to the cancer cells. […] Taxol and Triton are added as the positive killing control. […].
FIGS. 56A-56D show traces from the real-time killing assays performed on an xCELLigence instrument. In this assay, impedance is measured in real-time. When the adherent cancer cells are killed and come off of the electrode surface, impedance (insulation) decreases. Here NCI-H1975 non-small cell lung cancer cells that express very low levels of MUC1*, were plated onto multi-electrode 96-well plates at 5,000 cells per well and allowed to adhere and grow for 24 hours before the addition of ADCs. Either MNC2-Exatecan, DAR 8.2, MNC2-Deruxtecan, DAR 4.0, MNC2-MMAE, DAR 4.1, or free Exatecan at 50 μM, was then added to the cancer cells.
(§1) To assess real-time killing of target cancer cells including breast cancer cells (T47D), non-small cell lung cancer cells (NCI-H1975) and pancreatic cancer cells (HP AF II) assays were performed on an xCELLigence RTCA MP Instrument (Agilent). Target Cancer cells were seeded onto a multi-electrode well plate at a density of 5000 cells/well (100 μL of a 50,000 cells/mL stock) and incubated for 24 hr in a 37° C./5% CO2 incubator. mAb MNC2 ADCs or mAb MN20A10-ADCs were prepared as a 2× solution in corresponding growth media and 100 μL of each concentration was added to target cells. As a positive control (100% cell killing) cells were treated with either 1% triton or 1 μM Taxol instead of ADC. After 40-120 hours incubation in a 37° C./5% CO2 incubator cell killing was assessed. In this assay, impedance is measured in real-time. When the adherent cancer cells are killed and come off the electrode surface, impedance (insulation) decreases.
(§2) MNC2-ADCs and MN20A10-ADCs were also assayed for their ability to kill both low and high MUC1* expressing cells by monitoring killing in real-time using an xCELLigence instrument. In the xCelligence system, target cancer cells, which are adherent, are plated onto electrode array 96-well plates. Adherent cells insulate the electrode and increase the impedance. The number of adherent cancer cells is directly proportional to impedance. […] Therefore, increasing impedance reflects the growth of the cancer cells and decreasing impedance reflects the killing of the cancer cells.

[3] = tested on: T47D-MUC1* breast cancer cells; assay: xCELLigence real-time killing assay (impedance); assay type: cell-based, human
Protocol: In this assay, impedance is measured in real-time. When the adherent cancer cells are killed and come off of the electrode surface, impedance (insulation) decreases. […] Either MNC2-MMAE, DAR 4.1, MN20A10-MMAE, DAR 5.8, MNC2-MMAF, DAR 3.7, MN20A10-MMAF, DAR 3.8, MNC2-Deruxtecan, DAR 7.2, or MN20A10-Deruxtecan, DAR 4.6, was then added to the cancer cells. […] Taxol and Triton are added as the positive killing control. […] Taxol and Triton are added as the positive killing control.
In this assay, impedance is measured in real-time. When the adherent cancer cells are killed and come off of the electrode surface, impedance (insulation) decreases. […] Either MNC2-Exatecan, DAR 8.2, MNC2-Deruxtecan, DAR 4.0, MNC2-MMAE, DAR 4.1, or free Exatecan at 50 μM, was then added to the cancer cells.
as §1, §2

[4] = tested on: T47D wild-type breast cancer cells; assay: xCELLigence real-time killing assay (impedance); assay type: cell-based, human
Protocol: FIGS. 49A-49J show traces from the real-time killing assays performed on an xCELLigence instrument. In this assay, impedance is measured in real-time. When the adherent cancer cells are killed and come off of the electrode surface, impedance (insulation) decreases. T47D wild-type breast cancer cells were plated onto multi-electrode-well plates at 5,000 cells per well and allowed to adhere and grow for 24 hours before the addition of ADCs. Either MNC2-MMAE, DAR 4.1, MN20A10-MMAE, DAR 5.8, MNC2-MMAF, DAR 3.7, MN20A10-MMAF, DAR 3.8, MNC2-Deruxtecan, DAR 7.2, or MN20A10-Deruxtecan, DAR 4.6, was then added to the cancer cells. […] Taxol and Triton are added as the positive killing control. […] Taxol and Triton are added as the positive killing control. […]
as §1, §2
Breast cancer cell line T47D-wt expresses MUC1* at low to low-medium levels. Pancreatic cancer cell line HPAF II-wt expresses even lower levels of MUC1* and lung cancer cell line NCI-H1975 express still lower levels of MUC1*.

[5] = Toxicities in animal studies of the ADC formats; assay type: in vivo; conditions: each antibody incorporated into several ADC formats
From the text: Exatecans have a high level of bystander effect, meaning that they can kill neighboring cells. […] It is not completely clear whether these side effects are due to the payload or to the target, HER2, which is also expressed on normal lung and normal heart. Recall that the first two patients treated with a HER2 targeting CAR T cell product died shortly after the infusion. […] More recently, yet another patient died after being treated with a different HER2-targeting ADC.

[6] = tested on: DU145 hormone refractory prostate cancer cells; assay: PrestoBlue live/dead cell assay and brightfield photographs; assay type: cell-based; conditions: 500 nM, 20× magnification

B1: MNC2-Exatecan (conjugate)
VH: EVQLVESGGGLVKPGGSLRLSCAASGFTFSGYAMSWVRQAPGKGLEWVSTISSGGTYIYYPDSVKGRFTISRDNAKNSLYLQMNSLRAEDTAVYYCARLGGDNYYEYFDVWGKGTTVTVSS
VL: DIVLTQSPASLAVSPGQRATITCRASKSVSTSGYSYMHWYQQKPGQPPKLLIYLASNLESGVPARFSGSGSGTDFTLTINPVEANDTANYYCQHSRELPFTFGGGTKVEIKRT
With B1 the “killing potency compared with MNC2-deruxtecan (DAR 4.0) and MNC2-MMAE (DAR 4.1)” value [1] was “more potent killing of the low MUC1* expressing cancer cells”, the “concentration as low as which cancer cells are potently killed” value [2] was 167 nM and the “concentration as low as which cancer cells are potently killed” value ([3]; readout 0 to 120 hours, MNC2-Exatecan DAR 8.2, MNC2-Deruxtecan DAR 4.0 (FIG. 55)) was “as low as 6.2 nM and even as low as 2.1 nM”. The “concentration as low as which target cancer cells are potently killed” value ([4]; readout 0 to 120 hours, DAR 8.2 (FIG. 54)) was 56 nM.

B2: MN20A10: anti-MUC1* antibody, IgG2b isotype, CDRs SEQ ID NO 1-3 and 13-15 (antibody, V domains shown)
VH: EVMLVESGGGLVKPGGSLKLSCAASGFTFSTYAMSWIRQTPEKRLEWVASIGRAGSTYYSDSVKGRFTISRDNVRNILYLQMSSLRSEDTAMYYCARGPIYNDYDEFAYWGQGTLVTVSA
VL: NIMMTQSPSSLAVSAGEKVTMSCKSSQSVLYSSNQKNYLAWYQQKPGQSPKLLIYWASTRESGVPDRFTGSGSGTDFTLTISSVQAEDLAVYYCHQYLSSLTFGAGTKLELK
For B2, the toxicities [5] was “elicited no toxicities in animal studies”.

B3: MN20A10-Deruxtecan (conjugate)
VH: QVQLVESGGGLVKPGGSLRLSCAASGFTFSTYAMSWIRQAPGKGLEWVASIGRAGSTYYSDSVKGRFTISRDNAKNSLYLQMNSLRAEDTAVYYCARGPIYNDYDEFAYWGQGTLVTVSS
VL: EIVLTQSPATLSLSPGERATLSCKSSQSVLYSSNQKNYLAWYQQKPGQAPRLLIYWASTRESGIPARFSGSGSGTDFTLTISSLEPEDFAVYYCHQYLSSLTFGGGTKVEIKR
In the case of B3, the “cell morphology in photographs” value [6] is reported as “rounding up and dead cells”, the “ADC concentration at which essentially all (near total) tumor cells were killed” value ([3]; readout 120 hours post ADC addition) is reported as 167 nM and the “concentration showing potent / effective / comparable killing” value ([4]; after 120 hours) is reported as 167 nM. For the same molecule, the “concentration with significant killing” value ([4]; by 120 hours, DAR 4.6) was 167 nM.

From US12491259B2, “Anti-variable MUC1* antibodies and uses thereof” (Minerva Biotechnologies Corporation, priority 2022, dated 2025)
